Reference: article PMC11018817, “Reciprocal antagonism of PIN1-APC/C^CDH1 governs mitotic protein stability and cell cycle entry” (Nature Communications, 2024)
Square brackets hold non-standard residues; d marks the D form. Ends that are not written are not given here. Pro(13C,15N) = 13C, 15N isotope-labelled Pro; pS = N[C@@H](COP(=O)(O)O)C(=O)O

Target: T1, 13C, 15N-enriched PIN1 (NMR sample) (human, UniProt Q13526 1-163, 13C, 15N-enriched)
T1 construct: PIN1, human; resonances of both the WW and the PPIase domain were followed; also called 15N-labeled PIN1
Test: NMR titration; series of 2D HSQC spectra of 0.1 mM 13C, 15N-enriched PIN1 titrated with the CDH1 phosphopeptide; 25 °C, pH 6.6, 20 mM potassium phosphate, 100 mM NaSO4, 10% D2O; chemical shift perturbation
Conditions: both partners purified

T1 sequence (Q13526 whole entry, the tested form may be a part): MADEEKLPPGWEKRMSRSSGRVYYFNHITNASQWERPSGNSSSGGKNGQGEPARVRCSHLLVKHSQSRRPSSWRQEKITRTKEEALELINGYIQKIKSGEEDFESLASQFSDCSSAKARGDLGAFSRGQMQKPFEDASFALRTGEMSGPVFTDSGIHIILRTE

binding result: binds
B1: CDH1-pS163 peptide (peptide)
peptide: LR[pS][Pro(13C,15N)]RKPTRKISKIPFKVLDAPE
notes: CDH1 (FZR1), human, residues 161-183; also called CDH1 phosphopeptide; phosphorylated peptide; source: synthetic peptide, bought: Pepmic
